# Assay: Particle size of reconstituted freeze dried Factor XI by dynamic light scattering
# Type: physicochemical
# Settings: sample exposed to a pulsed electromagnetic field compared to the control
# Description: Experiment 1 was repeated but with Hemoleven (Factor XI) in place of the Factor VIII.
substance,measurement,value
"Factor XI: Hemoleven (Factor XI), blood clotting factor",% volume of larger particles,significant reduction
